In paper PMC2676576:

Key:
[1] = biological target: recombinant full-length human STAM of the full-length ESCRT-0 complex (human) (UniProt Q92783); assay: SEC-MALS
[2] = biological target: recombinant full-length human STAM of the full-length ESCRT-0 complex (human) (UniProt Q92783); assay: AUC
[3] = biological target: STAM(300-387) of ESCRT-0 core construct b (human) (UniProt Q92783); assay: SDS-PAGE and mass spectrometry of dissolved crystals

recombinant full-length human STAM of the full-length ESCRT-0 complex (human), sequence (Q92783 whole entry, one chain of several): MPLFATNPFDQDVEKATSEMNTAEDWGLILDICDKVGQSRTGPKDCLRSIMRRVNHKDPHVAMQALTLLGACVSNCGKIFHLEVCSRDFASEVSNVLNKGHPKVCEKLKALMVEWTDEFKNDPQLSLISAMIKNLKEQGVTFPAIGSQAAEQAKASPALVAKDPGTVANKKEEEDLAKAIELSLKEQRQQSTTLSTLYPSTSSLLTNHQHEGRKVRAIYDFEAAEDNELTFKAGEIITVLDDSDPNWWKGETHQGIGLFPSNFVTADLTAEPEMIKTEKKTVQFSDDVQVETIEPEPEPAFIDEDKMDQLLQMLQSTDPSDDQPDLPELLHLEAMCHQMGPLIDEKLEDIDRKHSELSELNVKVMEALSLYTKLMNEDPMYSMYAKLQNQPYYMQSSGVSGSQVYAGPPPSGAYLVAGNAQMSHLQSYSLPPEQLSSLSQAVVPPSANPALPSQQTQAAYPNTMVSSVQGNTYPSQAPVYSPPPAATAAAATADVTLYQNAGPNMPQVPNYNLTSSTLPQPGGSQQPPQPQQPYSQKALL
Hrs(398-557) of ESCRT-0 core construct b, sequence (O14964 398-514): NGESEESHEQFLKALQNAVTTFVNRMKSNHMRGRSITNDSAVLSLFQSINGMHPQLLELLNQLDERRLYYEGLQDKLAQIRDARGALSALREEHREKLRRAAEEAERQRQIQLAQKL

stoichiometry N [1]	stoichiometry N [2]	stoichiometry N [3]	Substance
1 Hrs:STAM	1 Hrs:STAM		recombinant full-length Hrs (mouse Hrs gene) of the full-length ESCRT-0 complex (from UniProt Q99LI8 1-775) (natural protein)
		1 Hrs:STAM	Hrs(398-557) of ESCRT-0 core construct b (from UniProt O14964 398-557) (domain or fragment)
